According to the DeepSol protein solubility set:

assay: soluble on expression in E. coli; label from the status in PepcDB or PDB records

Sequence	soluble on expression in E. coli
MGGSHHHHHHGMASALTDQTYCDRLVQDTPFLTGHGRLSEQQVDRIILQLNRYYPQILTNKEAEKFRNPKASLRVRLCDLLSHLQRSGERDCQEFYRALYIHAQPLHSRLPSRHALQNSDCTELDSGSQSGELSNRGPMSFLAGLGLAVGLALLLYCYPPDPKGLPGTRRVLGFSPVIIDRHVSRYLLAFLADDLGGL	not soluble
MGGSLGLALQEWGRFKSVIGYDHNALHAKLALTLGLVDECVGFEKILECDVIFLAIPVEGIIGCLKKMTSIKKSATIIDLGGAKAQIIRNIPKSIRKNFIAAHPMCGTEFYGPKASVKGLYENALVILCDLEDSGTEQVEIAKEIFLGVKARLIKMKSNEHDTHVAYISHLPHVLSYALANSVLKQNDPEMILSLAGGGFRDMSRLSKSSPLMWKDIFKQNRDNVLEAIKKCEKEIVQAKAWIENNDYESLAEWMAQANKLQEFMLEHHHHHH	not soluble
MGHHHHHHHHHHSSGHIDDDDKHMGSMAELKYISGFGNECSSEDPRCPGSLPEGQNNPQVCPYNLYAEQLSGSAFTCPRSTNKRSWLYRILPSVSHKPFESIDEGHVTHNWDEVDPDPNQLRWKPFEIPKASQKKVDFVSGLHTLCGAGDIKSNNGLAIHIFLCNTSMENRCFYNSDGDFLIVPQKGNLLIYTEFGKMLVQPNEICVIQRGMRFSIDVFEETRGYILEVYGVHFELPDLGPIGANGLANPRDFLIPIAWYEDRQVPGGYTVINKYQGKLFAAKQDVSPFNVVAWHGNYTPYKYNLKNFMVINSVAFDHADPSIFTVLTAKSVRPGVAIADFVIFPPRWGVADKTFRPPYYHRNCMSEFMGLIRGHYEAKQGGFLPGGGSLHSTMTPHGPDADCFEKASKVKLAPERIADGTMAFMFESSLSLAVTKWGLKASRCLDENYHKCWEPLKSHFTPNSRNPAEPN	soluble
MGHHHHHHHHHHSSGHIDDDDKHMKNKKDKGLLSGKLTPAQSKNPAKNELYLVEGDSAGGSAKQGRDRKFQAILPLRGKVINTAKAKMADILKNEEINTMIYTIGAGVGADFSIEDANYDKIIIMTDADTDGAHIQTLLLTFFYRYMRPLVEAGHVYIALPPLYKMSKGKGKKEEVAYAWTDGELEELRKQFGKGATLQRYKGLGEMNADQLWETTMNPETRTLIRVTIEDLARAERRVNVLMGDKVEPRRKWIEDNVKFTLEEATVF	soluble
MGHHHHHHMRSYEKSKTAFKEAQKLMPGGVNSPVRAFKSVDMDPIFMERGKGSKIFDIDGNEYIDYVLSWGPLILGHTNDRVVESLKKVAEYGTSFGAPTEVENELAKLVIDRVPSVEIVRMVSSGTEATMSALRLARGYTGRNKILKFEGCYHGHGDSLLIKAGSGVATLGLPDSPGVPEGIAKNTITVPYNDLESVKLAFQQFGEDIAGVIVEPVAGNMGVVPPQEGFLQGLRDITEQYGSLLIFDEVMTGFRVDYNCAQGYFGVTPDLTCLGKVIGGGLPVGAYGGKAEIMEQIAPSGPIYQAGTLSGNPLAMTAGLETLKQLTPDSYKNFIKKGDRLEEGISKAAEAHGIPHTFNRAGSMIGFFFTNEPVINYETAKASDLKLFASYYKGMANEGVFLPPSQFEGLFLSTAHTDEDIENTIQAAEKVFAEISRR	soluble
MGHHHHHHSHATWHSALRGDAGLDSCRHVDSKCSGLHSSYRNLGTRQCPFSFLAEVMGKEPHFHSCLQVSHEFALNFNPSNPYCAGIQGIVDAYRQALPQVRLYGPTNFAPIINHVARFAQYFMLLLLTDGAVTDVEATREAVVRASNLPMSVIIVGVGGADFEAMEQLDADGGPLHTRSGQAAARDIVQFVPYRRFQNAPREALAQTVLAEVPTQLVSYFRAQGWAPLKPLPPSAKDPAQAPQA	not soluble
MGHHHHHHSHIKKNNHHEENISSKMKGLNGKVSDLEKAAAQRKAKLDENSAFLQFNWKADVVESWIGEKENSLKTDDYGRDLSSVQTLLTKQETFDAGLQAFQQEGIANITALKDQLLAAKHVQSKAIEARHASLMKRWSQLLANSAARKKKLLEAQSHFRKVEDLFLTFAKKASAFNSWFENAEEDLTDPVRCNSLEEIKALREAHDAFRSSLSSAQADFNQLAELDRQIKSFRVASNPYT	not soluble
MGHHHHHHSHKDDTDPGQLKGLSAHTHVELPYYSKFILIAAYLASYNPARTDKRFFLKHHGKIKKTNFLKKHEKTSNHLLGPKPFPLDRLLAILYSIVDSRVAPTANIFSQITSLVTLQLLTLVGHDDQLDGPKYKCTVSLDFIRAIARTVNFDIIKYLYDFL	not soluble
MGHHHHHHSHKPGLSTSIPLRMSSYTFKRPVTRITPHPGNEVRYHQWEESLEKPQQVCWQRRLQGLQAYSSAGELSSTLDLANTLQKLVPSYTGGSLLEDLASGLEHSCPMPHLACSSDAVEIIPAEGVGISQLLCKQFLVTEEDIRKQEGKVKTVRERLAIALIADGLANEAEKVRDQEGCPEKR	not soluble
MGHHHHHHSHMAASRNGFEAVEAEGSAGCRGSSGMEVVLPLDPAVPAPLCPHGPTLLFVKVTQGKEETRRFYACSACRDRKDCNFFQWEDEKLSGARLAAREAHNRRCQPPLSRTQCVERYLKFIELPLTQRKFCQTCQQLLLPDDWGQHSEHQVLGNVSITQLRRPSQLLYPLENKKTNAQYLFADRSCQFLVDLLSALGFRRVLCVGTPRLHELIKLTASGDKKSNIKSLLLDIDFRYSQFYMEDSFCHYNMFNHHFFDGKTALEVCRAFLQEDKGEGIIMVTDPPFGGLVEPLAITFKKLIAMWKEGQSQDDSHKELPIFWIFPYFFESRICQFFPSFQMLDYQVDYDNHALYKHGKTGRKQSPVRIFTNIPPNKIILPTEEGYRFCSPCQRYVSLENQHCELCNSCTSKDGRKWNHCFLCKKCVKPSWIHCSICNHCAVPDHSCEGPKHGCFICGELDHKRSTCP	soluble
MGHHHHHHSHMALVTVQRSPTPSTTSSPCASEADSGEEECRSQPRSISESFLTVKGAALFLPRGNGSSTPRISHRRNKHAGDLQQHLQAMFILLRPEDNIRLAVRLESTYQNRTRYMVVVSTNGRQDTEESIVLGMDFSSNDSSTCTMGLVLPLWSDTLIHLDGDGGFSVSTDNRVHIFKPVSVQAMWVDRDSRNKHCDVLLVEE	not soluble
MGHHHHHHSHMANSAGSMANSAGSLPTTTIGSFPQSREVRKYRADWKNKRITDEAYETFLKNEIARWIKIQEDIGLDVLVHGEFERNDMVEFFGEKLQGFLVTKFGWVQSYGSRAVKPPIIYGDVKWTAPLTVDETVYAQSLTDKPVKGMLTGPVTILNWSFERVDLPRKVVQDQIALAINEEVLALEAAGIKVIQVDEPALREGLPLRSEYHEQYLKDAVLSFKLATSSVRDETQIHTHMCYSQFGQIIHAIHDLDADVISIETSRSHGDLIKDFEDINYDLGIGLGVYDIHSPRIPTKEEITTAINRSLQQIDRSLFWVNPDCGLKTRKEEEVKDALTVLVNAVKA	not soluble
MGHHHHHHSHMASLFRSYLPAIWLLLSQLLRESLAAELRGCGPRFGKHLLSYCPMPEKTFTTTPGGWLLESGRPKEMVSTSNNKDGQALGTTSEFIPNLSPELKKPLSEGQPSLKKIILSRKKRSGRHRFDPFCCEVICDDGTSVKLCT	not soluble
MGHHHHHHSHMATNAKPVYKRILLKLSGEALQGTEGFGIDASILDRMAQEIKELVELGIQVGVVIGGGNLFRGAGLAKAGMNRVVGDHMGMLATVMNGLAMRDALHRAYVNARLMSAIPLNGVCDSYSWAEAISLLRNNRVVILSAGTGNPFFTTDSAACLRGIEIEADVVLKATKVDGVFTADPAKDPTATMYEQLTYSEVLEKELKVMDLAAFTLARDHKLPIRVFNMNKPGALRRVVMGEKEGTLITE	soluble
MGHHHHHHSHMAVASTSTSDGMLTLDLIQEEDPSPEEPTSCAESFRVDLDKSVAQLAGSRRRADSDRIQPSADRASSLSRPWEKTDKGATYTPQAPKKLTPTEKGRCASLEEILSQRDAASARTLQLRAEEPPTPALPNPGQLSRIQDLVARKLEETQELLAEVQGLGDGKRKAKDPPRSPPDSESEQLLLETERLLGEASSNWSQAKRVLQEVRELRDLYRQMDLQTPDSHLRQTTPHSQYRKSLM	not soluble
MGHHHHHHSHMCSALVVAAPHSGSGKTTVTAAIARYHRVQGRKVTVFKVGPDFIDPMILRQASGELVYQLDLWLVGEQGCRALLHRAAMDSDLILIEGVMGLFDGTPSSADLAKYFNIPVLGVIDAKAMAQTFAAVTFGLAKFCEDLPFSGVIANRVNTERHAELLSVSLPKAFRFYGRIPKDDTITLPERHLGLVQAQELSDIDVQLDKAASHIANTG	not soluble
MGHHHHHHSHMEKSELKPAGVFHFFNEICQVPRPSKKEEKMIAYLKAFGEKHNLETKVDEAGNVLIKKPATPGKENLKTVILQSHVDMVCEKNNDTDHDFLTDPIETEIDGEWMKAKGTTLGADNGIGVATELAILADDSIEHGPIECLFTVDEETGLTGAFALKEGFMSGEILLNLDSEDEGELYIGCAGGIDTVAEFQYENEMTPISHLCFRITVKGLKGGHSGGDIHLGRGNANKILNRFLYQMMTTYQEDFHLYEFNGGNLRNAIPREASAVFSVPEHYKHDIRTALNVFTAEIENELHRVEPDLNILLETEPHRDWSIDSSTSYRLITSLYGCPHGVYAMSQDIPGLVETSTNLASVKMKPENTIRIETSQRSSILSSRDDIATTVRAVFRLAGAQVNWGEGYPGWKPNPDSEILKVAEESYKRLFGVDAKVKAIHAGLECGLFLDKYPALDMISFGPTLTGVHSPDERMHIPSVDKFWKHLLDVLAHIPAKN	soluble
MGHHHHHHSHMFEFKHIKAFDRAFADNPGPMVVFATPGMLHAGQSLQIFRKWAGNEKNMVIMPGYCVQGTVGHKILSGQRKLEMEGRQVLEVKMQVEYMSFSAHADAKGIMQLVGQAEPESVLLVHGEAKKMEFLKQKIEQELRVNCYMPANGETVTLPTSPSIPVGISLGLLKREMAQGLLPEAKKPRLLHGTLIMKDSNFRLVSSEQALKELGLAEHQLRFTCRVHLHDTRKEQETALRVYSHLKSVLKDHCVQHLPDGSVTVESVLLQAAAPSEDPGTKVLLVSWTYQDEELGSFSHLC	not soluble
MGHHHHHHSHMGCDGGTIPKRHELVKGPKKVEKVDKDAELVAQWNYCTLSQEILRRPIVACELGRLYNKDAVIEFLLDKSAEKALGKAASHIKSIKNVTELKLSDNPAWEGDKGNTKGDKHDDLQRARFICPVVGLEMNGRHRFCFLRCCGCVFSERALKEIKAEVCHTCGAAFQEDDVIVLNGTKEDVDVLKTRMEERRLRANREKKTKKPKAAESVSKPDVSEEAPGPSKVKTGKPEEASLDSREKKTNLAPKSTAMNESSSGKAGKPPCGATKRSIADSEESEAYKSLFTTHSSAKRSKEESAHWVTHTSYCF	not soluble
MGHHHHHHSHMGRGSGTFERLLDKATSQLLLETDWESILQICDLIRQGDTQAKYAVNSIKKKVNDKNPHVALYALEVMESVVKNCGQTVHDEVANKQTMEELKDLLKRQVEVNVRNKILYLIQAWAHAFRNEPKYKVVQDTYQIMKVEGHVFPEFKESDAMFAAERAPDWVDAEECHRCRVQFGVMTRKHHCRACGQIFCGKCSSKYSTIPKFGIEKEVRVCEPCYEQLNRKAEGK	soluble
MGHHHHHHSHMGSLPSRRKSLPSPSLSSSVQGQGPVTMEAERSKATAVALGSFPAGGPAELSLRLGEPLTIVSEDGDWWTVLSEVSGREYNIPSVHVAKVSHGWLYEGLSREKAEELLLLPGNPGGAFLIRESQTRRGSYSLSVRLSRPASWDRIRHYRIHCLDNGWLYISPRLTFPSLQALVDHYSELADDICCLLKEPCVLQRAGPLPGKDIPLPVTVQRTPLNWKELDSSLLFSEAATGEESLLSEGLRESLSFYISLNDEAVSLDDA	not soluble
